The sequences below were run on CcNsdD2-C (C-terminal DNA-binding domain of CcNsdD2) (Coprinopsis cinerea AmutBmut (pab1-1)), ORF:b1e54c23 (assay: EMSA). Settings: EMSA: 30 uL, 1x EMSA binding buffer (composition not given), 1.5 ug salmon sperm DNA, 50 ng probe, 4 ug CcNsdD2-C, 37 C 30 min; 5% PAGE in 1x TBE pH 8.3.
Chain of CcNsdD2-C (C-terminal DNA-binding domain of CcNsdD2) (Coprinopsis cinerea AmutBmut (pab1-1)), ORF:b1e54c23 (chain, as listed by the source): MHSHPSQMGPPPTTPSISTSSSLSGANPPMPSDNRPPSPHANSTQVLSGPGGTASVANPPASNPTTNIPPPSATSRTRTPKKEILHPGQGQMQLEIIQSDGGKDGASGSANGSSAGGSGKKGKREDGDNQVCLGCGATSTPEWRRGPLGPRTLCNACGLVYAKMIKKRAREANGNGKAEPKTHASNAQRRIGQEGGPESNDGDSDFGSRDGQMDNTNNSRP

| Sequence | binding |
| --- | --- |
| AGCACGTGGTCGAAAGCCGTGGTTGGGCAGATGTGGTGGGTGAAGATCGGCAAAAATAACAGGACGCGATCTATGAAAAGTCACGGATTCGCGAAGGGGGCAAATAGATCGCGTAGGAGCAAAAGGCGTGTGCATCGCGCGCTTTGGTTACTTTCGACCACGTGCT (double strand) [cfs1 promoter probe] | binds |
| AGCACGTGGTCGAAAGCGTACTGTGGAGCAGGGAGAACGTTTGAAGATACCGAAGAAGCATCGGCTAGACCAAATCAAGCAGATCGGTGTACAGATATAGAATGTTTAGCTTGTTATTCGGTTCCAAGGAATACAGTCACAGCTCAGGAGCTTTCGACCACGTGCT (double strand) [hyd1 promoter probe] | binds |
| AGCACGTGGTCGAAAGGAAGTTGCTGTATACTCGATGACACTCAAGAGTGAGAGGGTTTCGGCCCGTGAGAGTTTCAAGCGGAGATCAAAAGCGATACAGTGATTAGATTAAAACAACGAGTAGATAAGATGGAGATCTTTCGACCACGTGCT (double strand) [cfs2 promoter probe] | binds |
| AGCACGTGGTCGAAAGTCAGACGAAATCGCCGATTCGCCGAACTCAAGGCCAAATGCATTTTAAACTCCGATCTCGGTGGGTCGCTCACCGATAGATCTCAAAACGATTTCGTTTCTGTGACGAGCATGGCTTCGACGCATTATCCAACGGCTCCTTTCGACCACGTGCT (double strand) [nsdD1 promoter probe] | binds |
| AGCACGTGGTCGAAAGTTCGCAATTTCATTGCATCCCTGAGCCACCTGACCACCGGAGATCGCTGAATATTGCTTGGGCCAGATATGACCAGAGTTAGCTTGATAGATCGGCATCCCCAATGACGGAGATGAAGTCGGAAGAGCCGAATCCTTTCGACCACGTGCT (double strand) [cgl1 promoter probe] | binds |
